Data reported in the supplement of paper PMC9112550, “Optimization of the antimicrobial peptide Bac7 by deep mutational scanning” (BMC Biology, 2022).

Tested on: Escherichia coli TOP10
Experiment: shrunken log2 fold change of peptide-encoding DNA abundance (4.5 h post-induction vs induction); higher = less antimicrobial activity (less host growth inhibition)
Settings: time post-induction: 4.5 h; library: site-saturation at positions 5, 18, 19, 20
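Note: peptides expressed intracellularly from a pBAD plasmid library in pooled LB shake-flask culture, induced with 0.3% L-arabinose, DNA abundance read by NGS, three biological replicates, DESeq2 with apeglm shrinkage.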

Sequence | shrunken log2 fold change
RRIRCRPPRLPRPRPRPEADPRP | 0.819
RRIRVRPPRLPRPRPRPVKIPRP | -0.29
RRIRRRPPRLPRPRPRPCCAPRP | 0.372
RRIRFRPPRLPRPRPRPAEPPRP | 0.137
RRIRLRPPRLPRPRPRPVPQPRP | 0.238
RRIRCRPPRLPRPRPRPCMFPRP | -0.625
RRIRLRPPRLPRPRPRPYWHPRP | -0.61
RRIRERPPRLPRPRPRPEVIPRP | -0.00884
RRIRMRPPRLPRPRPRPMAPPRP | 0.218
RRIRERPPRLPRPRPRPHFKPRP | -0.342
RRIRPRPPRLPRPRPRPILCPRP | 0.179
RRIRERPPRLPRPRPRPSTEPRP | 0.0386
RRIRERPPRLPRPRPRPLAWPRP | 0.039
RRIRFRPPRLPRPRPRPLDQPRP | 0.0734
RRIRGRPPRLPRPRPRPMRGPRP | 1.09
RRIRVRPPRLPRPRPRPCSYPRP | -0.0326
RRIRERPPRLPRPRPRPQVVPRP | -0.42
RRIRQRPPRLPRPRPRPYPIPRP | -0.00931
RRIRKRPPRLPRPRPRPLMRPRP | 1.35
RRIRSRPPRLPRPRPRPWKEPRP | -0.0075
RRIRDRPPRLPRPRPRPAWCPRP | 0.183
RRIRQRPPRLPRPRPRPAKAPRP | -0.101
RRIRYRPPRLPRPRPRPQKYPRP | -0.969
RRIRTRPPRLPRPRPRPYLRPRP | -0.163
RRIRKRPPRLPRPRPRPRQHPRP | 0.499

Sequence | shrunken log2 fold change
RRIRNRPPRLPRPRPRPIHYPRP | -0.285
RRIRSRPPRLPRPRPRPRHTPRP | 0.0335
RRIRSRPPRLPRPRPRPNKNPRP | -0.384
RRIRSRPPRLPRPRPRPIGEPRP | -0.017
RRIRWRPPRLPRPRPRPNPVPRP | -0.266
RRIRKRPPRLPRPRPRPENPPRP | 0.126
RRIRMRPPRLPRPRPRPFSIPRP | -0.11
RRIRLRPPRLPRPRPRPKAGPRP | 0.221
RRIRSRPPRLPRPRPRPYELPRP | 0.093
RRIRLRPPRLPRPRPRPLWTPRP | -0.0559
RRIRERPPRLPRPRPRPYAGPRP | -0.000921
RRIRLRPPRLPRPRPRPPANPRP | 0.592
RRIRSRPPRLPRPRPRPWCQPRP | -0.119
RRIRARPPRLPRPRPRPVQCPRP | 0.22
RRIRWRPPRLPRPRPRPCGVPRP | 0.0164
RRIRSRPPRLPRPRPRPFWLPRP | 0.26
RRIRDRPPRLPRPRPRPYTHPRP | -0.267
RRIRYRPPRLPRPRPRPLGSPRP | -0.651
RRIRRRPPRLPRPRPRPLEKPRP | 0.477
RRIRGRPPRLPRPRPRPPIAPRP | 0.874
RRIRNRPPRLPRPRPRPPCNPRP | -0.517
RRIRHRPPRLPRPRPRPWHTPRP | -0.566
RRIRIRPPRLPRPRPRPSIFPRP | -0.764
RRIRIRPPRLPRPRPRPFVHPRP | -0.498
RRIRHRPPRLPRPRPRPLHWPRP | 0.0266

Sequence | shrunken log2 fold change
RRIRPRPPRLPRPRPRPPWMPRP | 0.407
RRIRKRPPRLPRPRPRPARWPRP | 0.464
RRIRLRPPRLPRPRPRPSRGPRP | 0.0578
RRIRYRPPRLPRPRPRPALWPRP | -0.0105
RRIRYRPPRLPRPRPRPKNQPRP | -0.777
RRIRERPPRLPRPRPRPINRPRP | -0.017
RRIRCRPPRLPRPRPRPRDIPRP | -0.132
RRIRIRPPRLPRPRPRPVRDPRP | 0.158
RRIRVRPPRLPRPRPRPSVHPRP | -0.0573
RRIRERPPRLPRPRPRPRQTPRP | 0.253
RRIRERPPRLPRPRPRPSMKPRP | -0.607
RRIRCRPPRLPRPRPRPLDWPRP | 0.285
RRIRMRPPRLPRPRPRPIGSPRP | 0.079
RRIRGRPPRLPRPRPRPFIGPRP | -0.258
RRIRYRPPRLPRPRPRPYIDPRP | -0.103
RRIRVRPPRLPRPRPRPCFFPRP | -0.137
RRIRARPPRLPRPRPRPVVYPRP | -0.285
RRIRERPPRLPRPRPRPIPWPRP | -0.345
RRIRDRPPRLPRPRPRPDAIPRP | 0.903
RRIRNRPPRLPRPRPRPCFQPRP | 0.012
RRIRKRPPRLPRPRPRPHKRPRP | 0.434
RRIRKRPPRLPRPRPRPLLWPRP | 0.443
RRIRNRPPRLPRPRPRPYRLPRP | -0.00674
RRIRTRPPRLPRPRPRPWPRPRP | 0.116
RRIRNRPPRLPRPRPRPDMMPRP | -0.233

Sequence | shrunken log2 fold change
RRIRARPPRLPRPRPRPDDFPRP | -0.013
RRIRERPPRLPRPRPRPRNTPRP | -0.346
RRIRIRPPRLPRPRPRPMATPRP | -0.0167
RRIRQRPPRLPRPRPRPPDTPRP | 0.103
RRIRDRPPRLPRPRPRPHKTPRP | -0.0521
RRIRYRPPRLPRPRPRPSDVPRP | -0.199
RRIRYRPPRLPRPRPRPQRGPRP | -0.123
RRIRARPPRLPRPRPRPDHDPRP | 0.592
RRIRYRPPRLPRPRPRPTMWPRP | 0.0172
RRIRGRPPRLPRPRPRPGSVPRP | 0.484
RRIRARPPRLPRPRPRPYTVPRP | -0.306
RRIRKRPPRLPRPRPRPWAWPRP | -0.00174
RRIRQRPPRLPRPRPRPEANPRP | 0.0119
RRIRKRPPRLPRPRPRPDWTPRP | 1.54
RRIRHRPPRLPRPRPRPRMPPRP | 0.133
RRIRGRPPRLPRPRPRPSKNPRP | 0.619
RRIRTRPPRLPRPRPRPMLGPRP | -0.0672
RRIRFRPPRLPRPRPRPYLFPRP | 0.425
RRIRCRPPRLPRPRPRPDSFPRP | 0.211
RRIRGRPPRLPRPRPRPNQFPRP | 0.0521
RRIRFRPPRLPRPRPRPEWHPRP | -0.28
RRIRFRPPRLPRPRPRPTVVPRP | 0.174
RRIRGRPPRLPRPRPRPWVVPRP | 0.273
RRIRPRPPRLPRPRPRPESKPRP | 0.224
RRIRERPPRLPRPRPRPCRGPRP | 0.0764

Sequence | shrunken log2 fold change
RRIRMRPPRLPRPRPRPNNMPRP | -0.309
RRIRMRPPRLPRPRPRPWAHPRP | -0.091
RRIRHRPPRLPRPRPRPWMIPRP | -0.00164
RRIRYRPPRLPRPRPRPWNRPRP | -0.0135
RRIRTRPPRLPRPRPRPSDNPRP | -0.697
RRIRVRPPRLPRPRPRPIMSPRP | -0.0851
RRIRIRPPRLPRPRPRPFEDPRP | -0.207
RRIRSRPPRLPRPRPRPINSPRP | 0.0337
RRIRKRPPRLPRPRPRPFQDPRP | 0.118
RRIRTRPPRLPRPRPRPANAPRP | -0.0933
RRIRLRPPRLPRPRPRPTWNPRP | -0.114
RRIRTRPPRLPRPRPRPKKPPRP | -0.0293
RRIRLRPPRLPRPRPRPSDTPRP | -0.142
RRIRVRPPRLPRPRPRPIPRPRP | 0.0796
RRIRKRPPRLPRPRPRPFIWPRP | -0.0554
RRIRPRPPRLPRPRPRPLLYPRP | -0.348
RRIRNRPPRLPRPRPRPYNVPRP | -0.526
RRIRVRPPRLPRPRPRPFCLPRP | -0.357
RRIRYRPPRLPRPRPRPSKHPRP | -0.786
RRIRCRPPRLPRPRPRPEVAPRP | 0.293
RRIRHRPPRLPRPRPRPGRAPRP | 0.49
RRIRNRPPRLPRPRPRPCPPPRP | -0.328
RRIRNRPPRLPRPRPRPMTNPRP | 0.454
RRIRDRPPRLPRPRPRPQNIPRP | -0.126
RRIRGRPPRLPRPRPRPEAWPRP | 1.91
